Where two headings read alike, the source gives them in different places.
T1: full-length recombinant FC27 MSP2 (Plasmodium falciparum, UniProt P19260 21-261)
T1 chain: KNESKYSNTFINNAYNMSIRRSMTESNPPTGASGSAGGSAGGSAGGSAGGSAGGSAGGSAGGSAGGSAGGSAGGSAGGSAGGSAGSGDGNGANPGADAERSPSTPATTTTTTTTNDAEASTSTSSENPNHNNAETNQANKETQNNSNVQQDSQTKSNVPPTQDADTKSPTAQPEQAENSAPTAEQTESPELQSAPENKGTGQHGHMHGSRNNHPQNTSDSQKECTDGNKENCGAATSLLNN

T2: full-length recombinant 3D7 MSP2 (Plasmodium falciparum, UniProt P50498 21-246)
T2 chain: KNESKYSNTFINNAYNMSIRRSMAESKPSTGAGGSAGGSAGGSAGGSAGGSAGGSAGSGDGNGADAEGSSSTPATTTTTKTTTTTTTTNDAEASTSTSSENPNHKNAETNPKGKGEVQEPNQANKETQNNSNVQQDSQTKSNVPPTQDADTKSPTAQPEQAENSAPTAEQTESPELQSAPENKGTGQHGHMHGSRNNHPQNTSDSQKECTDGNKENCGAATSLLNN

B1: mouse monoclonal antibody 6D8 (antibody, V domains shown)
VH: QVQLQQSGDELVKPGASVKLSCTVSGFNIKDDFIHWMKQRPEQGLEWIGRIDPANGYTKYAPKFQDKATMTADTSSNTAYLQLSSLASEDAAVYYCATYGVAYWGQGTLVTVSA
VL: DIVLTQSPASLAVSLGQRATISCKASQSVDHDGDSYMNWFQQKPGQSPKLLIYAASNLESGIPARFSGSGSGTDFTLNIHPVEEEDAATYYCQQTNEDPYTFGGGTKLEIK
B2: 6D8 scFv (scFv, V domains shown)
VH: B1 VH
VL: B1 VL

What was measured:
Assay in all cases: ITC
6D8 scFv = target: B2
[1] = target: T1, full-length recombinant FC27 MSP2
[2] = target: T2, full-length recombinant 3D7 MSP2
[3] = target: T1, full-length recombinant FC27 MSP2
[4] = target: T2, full-length recombinant 3D7 MSP2

Binder	Kd (6D8 scFv)	Kd [1]	Kd [2]	Kd [3]	Kd [4]
NAYNMSIRRSMAESKPS [3D7-MSP2_(14-30)]	64 nM				
NAYNMSIRRSMANEGSN [FC27-MSP2_(14-30)]	16 nM				
B1		16 nM	64 nM		
B2		13 nM	61 nM	13 nM	61 nM

— PMC4428071 (2015)
